Patent publication US20030176674A1 (Human Genome Sciences, published 2003)
Numbering of substitutions follows the chain as printed.

T1: secreted form of VEGF-2 polypeptide (human vascular endothelial growth factor 2) (human, UniProt P49767 112-227, limits assumed)
T1 construct: also called secreted VEGF-2 protein
T1 sequence: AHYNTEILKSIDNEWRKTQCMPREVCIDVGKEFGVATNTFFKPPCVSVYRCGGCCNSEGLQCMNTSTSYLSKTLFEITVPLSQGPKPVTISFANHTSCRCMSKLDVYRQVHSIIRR

B1: antibody 1.2.3 (antibody expressed by hybridoma cell line 1.2.3, ATCC Deposit Number PTA-3342) (antibody, human IgG2, V domains shown)
VH: QVQLVESGGGVVQPGRSLRLSCAASGFTFSRYGMHWVRQAPGKGLEWVALIWYDGSNKYYADSVKGRFTISRDNSKNTLYLQMNSLRAEDTAVYYCARDGFGSGCFDYWGQGTLVTVSS
VL: DIVMTQTPLSLSVTPGQPASISCKSSQSLLHSDGKTYLYWHLQKPGQPPQLLIYEVSHRFSGVPDRFSGSGSGTDFTLKISRVEAEDVGLYYCVQSIQLPLTFGGGTKVEIKR
notes: Purified hybridoma antibody from XenoMouse; also called Hybridoma 1.2.3
B2: antibody 1.5.1 (antibody expressed by hybridoma cell line 1.5.1, ATCC Deposit Number PTA-3341) (antibody, V domains shown)
VH: QVQLVESGGGVVQPGRSLRLSCAASGFTFSRYGMHWVRQAPGKGLEWVAIIWYDGSDKYYADSVKGRFTISRDNSKNTLYLQMSSLRAEDTAVYYCARGTVGASFDYWGQGTLVTVSS
VL: B1 VL with H31N, H41Y, Y54N, H58N, L90V, V94L
notes: Purified hybridoma antibody from XenoMouse; VAX1510 is the IgG1 conversion of 1.5.1; also called Hybridoma 1.5.1

Target: T1, secreted form of VEGF-2 polypeptide …
Assay: BIAcore (SPR), CM5 chip; antibody captured by goat anti-human Fc; secreted VEGF-2 injected at 2.9-95.2 nM; double reference subtraction
Description: A high-density CM5 BIAcore sensor chip was prepared using 10 ug/mL of purified goat anti-human fc antibody as the capture reagent. The optimal pH for immobilization was pH 4 (10 mM sodium acetate). An EDC/NHS complex was applied first to activate the carboxyl groups on the sensor matrix. After the VEGF-2 antibodies were immobilized, the esters were inactivated with ethanolamine. Both a control and an experimental flow cell were used.
The kinetics cycle was performed with the following procedures. The flow rate for the entire binding cycle was 25 uL/minute. The purified VEGF-2 antibody, at 5 ug/mL, was injected only in the experimental flow cell for 1 minute. The secreted form of VEGF-2 was then injected into control and experimental flow cells. The concentration the secreted form of VEGF-2 polypeptide varied for each cycle. The secreted form of VEGF-2 polypeptide (calculated as a 21 kDa dimer) was diluted in HBS-EP from 2 ug/mL (95.2 nM) to-0.06 ug/mL (2.9 nM). Both association and dissociation was 7 minutes. Regeneration was performed using 8 uL of 25 mM HCl for all flow cells.
Evaluation was performed using the double reference subtraction, which subtracts the control flow cell from the experimental and also subtracts a buffer injection.

Row | Binder | Kd [nM] | koff [s⁻¹] | kon [M⁻¹ s⁻¹]
1 | B1 | 0.321 | 9.49e-05 | 295000
2 | B2 | 1.79 | 0.000657 | 367000
